# Measured values from patent US20120052569A1.
# Biological target: monoclonal 2H5 antibody produced by rat-mouse hybridoma 2H5 (FERM BP-11245)
# Assay: competitive elution of eTEV-GFPUV from 2H5 sepharose, peptide 0 to 1000 µg/mL, SDS gel
binder,measurement,value
RENLYFQGKDG [eTEV peptide (free peptide used as competitive eluent)],peptide concentration giving complete competitive elution,30 µg/mL
